Measured values reported in paper PMC5787828, “NAC transcription factor JUNGBRUNNEN1 enhances drought tolerance in tomato”.

B1: SlDELLA promoter probe (dsDNA)
DNA 1: ATTTTTCACACTTGACCACCACCACTTTTACTTGCCCTACTAAATCTAAA
DNA 2: TTTAGATTTAGTAGGGCAAGTAAAAGTGGTGGTGGTCAAGTGTGAAAAAT
B2: SlDREB1 promoter probe (dsDNA)
DNA 1: TTATTTAGTCGAGTCGTGGCTGTTGGGATGCCGCGGAATTCAGCACGTG
DNA 2: CACGTGCTGAATTCCGCGGCATCCCAACAGCCACGACTCGACTAAATAA
B3: SlDREB2 promoter probe (dsDNA)
DNA 1: TATATGGCTGTGCTTGATCGAACTTCAAATATGATGTTACCTATGGATTA
DNA 2: TAATCCATAGGTAACATCATATTTGAAGTTCGATCAAGCACAGCCATATA

These binders were tested against T1, AtJUB1-GST (Arabidopsis thaliana, UniProt Q9SK55 1-275) (assay: EMSA; abolished by 100x unlabelled competitor; Odyssey Infrared EMSA kit (LI-COR); buffer, salt, pH and temperature not stated). Conditions: protein: recombinant; tags: GST (pDEST24 fusion); chain copies: 2; label: 5'-DY682; blunt.
T1 sequence: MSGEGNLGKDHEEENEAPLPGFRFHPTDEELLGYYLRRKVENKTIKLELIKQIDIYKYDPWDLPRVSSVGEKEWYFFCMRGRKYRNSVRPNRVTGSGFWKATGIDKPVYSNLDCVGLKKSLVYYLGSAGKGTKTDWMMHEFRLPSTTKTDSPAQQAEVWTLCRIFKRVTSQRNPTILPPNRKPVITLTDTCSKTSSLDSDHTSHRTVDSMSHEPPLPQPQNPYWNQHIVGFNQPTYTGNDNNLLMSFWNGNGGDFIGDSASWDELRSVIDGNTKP

Binding result, binds:
B1
B2
B3
